Measured values as given in the DeepSol protein solubility set.

Experiment: soluble on expression in E. coli; label from the status in PepcDB or PDB records

Sequence	soluble on expression in E. coli
MNRLVILARVSTSKQDTERQLSDLNEVCTRNQYDLVNTFTETVSGKYGITERTTLQAIIKMAELKQFDKLLVSEVSRIGRKTSEVLKFIEILTERKISIYIHNYGLETLDRNLNQNPLIGMMINFLSSFSDMERTLTISRVKSGLEEARRRNVILGRPKNSTKDIDIFIDENKRLFELIKKQLTIREIARLTYKSTTTVVKAIKLYKLHPEKFLSAT	not soluble
MFQMRLNLVIELRDAPGQLVSVLEPLGSTGVNIVTVIHERDREYGPVVPVQLTVEGDRETLDAAIGRLQEQGVNIIEMDGAPLREKFTTILIGDIAEGDLQETVEAVNSVQGASVLDLSLRMSEGRSAARITFEAEHGSRDEVLRRINEAAMERNLLLVSEV	not soluble
MNELTGADFKSATADDNKKLFIETYGCQMNVADSEVIASVMQMAGYSVAETLEEADAVFMNTCSIRDNAEQKILNRLEFFHSMKKKKKHLIVGVLGCMAERVKDDLIEHHHVDLVVGPDAYLTLPELIASVEAGEKAMNVELSTTETYRDVIPSRICGNHISGFVSIMRGCNNFCTYCIVPYTRGRERSRDVESILNEVADLVSKGYKEITLLGQNVNSYRFEKEGGEVVTFPMLLRLVAEAAPGIRVRFTTSHPKDMSDETLEVIAQVPNVCKHIHLPVQSGSSRILKLMNRKYTREWYLDRVAAIKRIVPDCGLTTDIFSGFHSETEEDHRESLSLMEACGYDAAFMFKYSERPGTYASKHLEDNVPEEIKVRRLNEIIALQNRLSAESNNRCIGKTYEVLVEGVSKRSRDQLFGRTEQNRVVVFDRGTHRIGDFVNVRITEASSATLKGEEVFSLEHHHHHH	not soluble
SLPLQQYRDFIDNQMLLLVAQRDRASRIFPHLYLGSEWNAANLEELQRNRVTHILNMAREIDNFYPERFTYHNVRLWDEESAQLLPHWKETHRFIEAARAQGTHVLVHCKMGVSRSAATVLAYAMKQYECSLEQALRHVQELRPIARPNPGFLRQLQIYQGILTART	not soluble
GPGSMKKELRVGVLISGRGSNLEALAKAFSTEESSVVISCVISNNAEARGLLIAQSYGIPTFVVKRKPLDIEHISTVLREHDVDLVCLAGFMSILPEKFVTDWHHKIINIHPSLLPSFKGLNAQEQAYKAGVKIAGCTLHYVYQELDAGPIIMQAAVPVLREDTAESLASRILAAEHVCYPKGVKLIAQDKIKLCDDGTVQCTGEDELFLFQENF	soluble
MQPTRRSYSNPFKAQVIQECSQPGASIASVALSHNLNANLVHKWIRLHAQKSPTLPPAFIPLAMPPAGANPHPASPNICVEIQHTRGTVKVSWPTENAAACATFLRDLLRLEHHHHHH	not soluble
RQACYQEIIDTILSKKPHAFESLVVLLLQKMGYGGEIKQSGLVTPYSNDGGIDGIIKEDVLGFGRIHIQAKRYALENSVQRQEIQSFVGALAVAQSNKGVFITTSSFSRGAIQYAVGLNGSTTLILIDGQKLAEYIYEYGVGLQVEHTVEIKKLDSEFWDSMENEAGVPDL	not soluble
MGSDKIHHHHHHMEPHWDDMKVFLAVAREESLSGAGRQLKLDPATVGRRIARLESAYDTPLFAKSPQGYTLTAAGERLLSHGEQAEAAMRSASEALAGTTEGLTGQIRIGAPDGSANYLLPQVCAQISDENPELDIQILALPRIINLSRREADMAVTVSAPTAGHLLVQKITDYKLHMVASRRYLRGHPPIETLADLRGHRMIGYIPDMIFDRELDYLNDIGIERVALASNSVSVQLRQAGHGSGICVAHDFTLPFHGNLRRILTDQVSLTRSFYLVRHQGDQRSERLNRFAEALTRGIRDEVARLEADAMS	not soluble
MGSDKIHHHHHHGQPSNDKKNVLPDWAFGGFERPQGANPVISPIENTKFYCPMTQDYVAWESNDTFNPAATLHDGKIVVLYRAEDKSGVGIGHRTSRLGYATSSDGIHFKREKTPVFYPDNDTQKKLEWPGGCEDPRIAVTAEGLYVMTYTQWNRHIPRLAIATSRNLKDWTKHGPAFAKAYDGKFFNLGCKSGSILTEVVNGKQVIKKIDGKYFMYWGEEHVFAATSEDLVNWTPYVNTDGSLRKLFSPRDGHFDSQLTECGPPAIYTPKGIVLLYNGKNSASRGDKRYTANVYAAGQALFDANDPTRFITRLDEPFFRPMDSFEKSGQYVDGTVFIEGMVYYKDKWYLYYGCADSKVGMAIYNPKKPAAADPLP	not soluble
MADDGVNPKAFPLADTNLSQKLMDLVQQAMNYKQLKKGANEATKTLNRGISEIIVMAADAEPLEILLHLPLLCEDKNVPYVFVRSKAALGRACGVTRPVIAASITQNEGSQLKSQIQKIKEDVEKLLI	not soluble
MLARSARLLHSAELAANAIRAASGAPATAAAAEASFPSTDDVAAKTKKTGNRIKTFEIYRFNPEAPGAKPTVQKFDVDLDQCGTMILDALIKIKNEVDPTLTFRRSCREGICGSCAMNIGGQNTLACICKIDSDTSKSTKIYPLPHMFVVKDLVPDMNLFYAQYASIQPWIQKKTPLTLGEKQMHQSVAERDRLDGLYECILCACCSTSCPSYWWNADKYLGPAVLMQAYRWVIDSRDDYATERLHRMHDSFSAFKCHTIMNCTKTCPKHLNPAKAIGEIKSLLTGFTSKPAAEPSAF	not soluble
MGSDKIHHHHHHMAQPGKILKEQKYDRQLRLWGDHGQEALESAHVCLINATATGTEILKNLVLPGIGSFTIIDGNLVSGEDAGNNFFLQKSSIGKNRAQAAMEFLQELNSDVSGSFVEESPENLLDNDPSFFCRFTIVVATQLLESTLLRLADVLWNSQIPLLICRTYGLVGYMRIIIKEHPVIESHPDNALEDLRLDKPFPELREHLQSYDLDHMEKKDHSHTPWIVIIAKYLAQWYNETNGRIPKSYKEKEDFRDLIRQGILKNENGAPEDEENFEEAIKNVNTALNTTQIPSSIEDIFNDDRCINITKQTPTFWILARALKEFVAKEGQGNLPVRGTIPDMIADSNKYIKLQNVYREKAKKDAAAVGNHVAKLLQSVGQAPESISEKELKLLCSNSAFLRVVRCRSLAEEYGLDTVNKDEIISSMDNPDNEIVLYLMLRAVDRFHKQHGRYPGVSNYQVEEDIGKLKSCLTGFLQEYGLSVMVKDDYVHEFCRYGAAEPHTIAAFLGGAAAQEVIKIITKQFVIFNNTYIYSGMSQTSATFQL	not soluble
MRTVIFDLDGTLADTSGDLLAAANHCFRDMGLGDVLVPGQDAGIALRGGRMMLTRGLERVGAYDAATVERYYPVLLEAYRGAIDHHSFLYPGAMDAVEELRRAGYGVGICTNKPEALADLLLQRLGVRDAFAALIGADTLPVRKPDPEPLRAAARAAGGDPAACVLVGDSDTDRNTARAAGVPSILVTFGPSGDDMAALEPEALLERFEDLPHVVTRLIG	not soluble
KMPSPYSHKEFVKEIAPTAQKLSKIYGVRSSIIIGQAALDSHFGSTLLASKYHNLFSIEASPGQGAVRLKSHEYKNGRWQEVTNRYLVYESWKESLYDYMAILHGNKIWDKALYTTMMTSSGYKTVARALQAAGFNSDPNYADKLIAVIEENNL	soluble
MSLNAQLNDLGPIKAVIFDMDGLLLDTEGIYTEITQLIAERYGRTYDWTIKQNIIGRGAGDLARYVVQALDLPISAEEFLVMREPLMRERFPRAQAMPGAQELVRHLKEHRIPIAVGTSSSQMSFGEKTTRHGDWFALFDTIVTADDPEVTAAKPAPDIFLTAARRLGVAPAECLVFEDSPFGVTAARAAGMSVIAVPDPAMADSKFAHAHGIIRSLKGFQPAACGLPHLHWDEGHHHHHH	soluble
MAHHHHHHMDKGCSDCFFACHRYENWIDNQKEQFLKQRGEYENVINGTSSSSSSVGGKRQTRRTRSISSDDNGYESKFYKKLKERGYSEVKNFFEKLNKEKECQNFDDKGGEFDFNEHVDKDKEYKGTFYHSKYCEVCPGCGVKRDGNDWKEKSGGRCTRKKRYKILDDNNFNGIDVLSFGDKRNEIKQKIDTFCGGSNEEKEKLKEQWKCYEAQYVKEDKKEDEEDEDEVEEEDDLKDAGGLCTLQNKKK	not soluble
GPGSMSVEASRPTRSQDPLPAAVIREFLEMHQQCNDQSLGQGESPTGTEKDGTRAAEARVVSAPLRVEVETTHGYVYEGRLVAMDEFYNVTLTEATKRRERLCDVERSLLTMHGFPAPAASPSTRREYVGSVLVRSGNLLMIRFPQGEGNATRVLHGAFKSMVMKVRRQINLERQKNRMERRRRKQLPVKPQSLVGKAGDPPKRTKAKKE	soluble
MGSDKIHHHHHHMSILGLFGCDNGRNIAIICKNNPEICADLHKDSWCLAEKTQLIRDRYTLKDTTHPTGKQLYLQLTYLEDYSRCIELAAGVQHIIHTSRTADRARAFRLSTENLTQLQEQTRERQDPFMSYYQWTRFGDTQALNRLLEHENAGEVTDPFLLAQIATYYSNRDAIKSQQLYLKVLSEIQYDDFDVNWLLGLASTFRHTQQFDKTYMLTKANLLLTQQKYSEDKMLALLSNNKTLAAKLDKYAQTLIDALKNGNYSTSSVRKWLEPAPQILPAETITTEPVPEK	not soluble
MAHHHHHHMATARSYFYYLDAHGNLFPVTDIKGLIDGTNIPAGPIQLRDRAFLDFFYLRLKRSDVEDAAACSNVSDRREEGELLLHSGAKLTPQEVVQHFPYVSICGPERNFLKAEEAPLVFVNYTSGHPKCKQQNGTLAFGESLWEDFQPQALVVTREGKLFHPITKLKNLIATQNGAGDAVPRGLVEAQVVKKLGLELVCDSAKSGYYVLEWKGQKQRIPYFDEL	not soluble
MKIIKGAFPVLITPMDEFQEINWNGVKQNVNYFIEQKVAGIIINGSTGEFVSLSKEERFKMVETVLKEVNGRIPVIVGTAAETTKETIEFTKHAETHGADCALIINSYYCKPKEEEIYFHFKEISNAVNIPIMLYNNPFTSGVDMSTELMLRIGKDCENVTHIKESSGDIRKARDLVRQGEGAFQVFCGSEDLVMESYLVGATGWVSVAGNVVPGLVTKMYEHFQNGELEKAWEINDAILPLCEFLEGSGKYVQIVKRSMELQGQAGGPSRYPRLGLTEEEDQKLQAIISKIAAHAAV	not soluble
GPGSMADNEEVPPSGPRMTREETDELVRRLYDQQMERAARREEERQRQLARPFCSSRRIKKDEEENLVRRIYDVQRERFQQSKEERERRLTLELQSKDKKLPESEIQDQVDRIYNQEVAKSKARREELQKRYLPEVPPKTIGKKQLKESVERLFRVDYVKRDEELFKKHVYPYDPPTTKISRTDVEAMANRLSRRGS	not soluble
MSLARDYRWEGVPLKAYKTDGTHFRAITRQTLLGADEDERALGHQTRYFEIAPGGYSSLERHQHTHTVMILRGQGELILGDALHRIGRHDCIYIAPQTFHQFHASGDEPLGFLCIVDRERDRPRLPDDDELARMRALPGVGPKVRTEGHHHHHH	soluble
MHAIILTMRVGIVGFGNMGQAFALCFSKKLGKENIIVTDKVQEKRNLATEMGIAFASDVKFLADNSDVVLVAVKPKDSQEVLQKLKDYKGIILSIMAGVSIEKMEKILGKDKKIVRVMPNVNVAVGSGVMAITDNGNLSEEERSKVEELLLSCGTLYRIEERLFDAFTALAGSGPAFVFSFIDALALAGVHQGFSYEQALRIALDTVMGSAKLLKEFQVNPNELIAKVTSPGGTTIEGIKYLEEKGFKGTVMECINRTSQKAKKLLEHHHHHH	not soluble
MISRHFTVLTALNLQTKIKICIRNFSIRGAMTKVNGNSNGNGISASTDLLDTPSAYTQKSNKTHTSIDLRSDTVTVPSVEMRRAMAEAIVGDDVYGEDTTTNRLEQRCAELFGKEAGLFVTSGTMGNLLAIMAHCQRGEEIIVGRYNHIHRWEQGNYAQFAGISATTLEVKPDGTMDLNDIEQAIRVKGGYVQIKDESCDDLEVTSIPDCHMPASKLICIENTHNYTGGKALPIEWMRSVKQLAERRDLKVHMDGARIYNAAVASNCSVSKIASFADTVQMCFSKGLGAPVGSIVVGPKDFIDRARHSRKALGGGWRQSGILAAAAHIALDHADATIRADHERAKTLARMINDATPEEFRTKVFAAEKDITNMVLVHCQNGVTVQQLTDFFQKHDILAMTFDARRIRMVLNWNVSDENLETIVEVYKKFLKQL	not soluble
